Test results as given in patent US20260209386A1 (MYTHIC THERAPEUTICS, published 2026).
Numbering of substitutions follows the chain as printed.

T1: Human PTK7 Protein, His Tag, Acro Biosystems (human, UniProt Q13308 31-704)
T1 construct: Bought recombinant protein; also called CCK4; not shown: His tag
T1 sequence: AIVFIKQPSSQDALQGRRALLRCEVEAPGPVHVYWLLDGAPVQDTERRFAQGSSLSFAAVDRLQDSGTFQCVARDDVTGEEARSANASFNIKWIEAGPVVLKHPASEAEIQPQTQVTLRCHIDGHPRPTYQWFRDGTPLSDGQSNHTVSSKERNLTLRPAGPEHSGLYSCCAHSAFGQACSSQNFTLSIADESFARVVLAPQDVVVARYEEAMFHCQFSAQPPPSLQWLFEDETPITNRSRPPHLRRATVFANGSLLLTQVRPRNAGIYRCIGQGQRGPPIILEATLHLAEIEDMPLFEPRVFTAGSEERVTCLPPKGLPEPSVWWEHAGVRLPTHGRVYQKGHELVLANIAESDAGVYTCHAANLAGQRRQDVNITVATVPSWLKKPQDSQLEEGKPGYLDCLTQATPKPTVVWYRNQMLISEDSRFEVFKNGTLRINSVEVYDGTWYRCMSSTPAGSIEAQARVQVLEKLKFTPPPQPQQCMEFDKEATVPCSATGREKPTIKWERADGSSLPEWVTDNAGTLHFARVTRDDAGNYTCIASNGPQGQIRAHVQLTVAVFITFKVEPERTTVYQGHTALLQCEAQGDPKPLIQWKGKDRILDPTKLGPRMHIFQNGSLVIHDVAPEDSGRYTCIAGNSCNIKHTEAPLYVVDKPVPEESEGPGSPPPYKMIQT

T2: Human PTK7 Protein, His Tag, Acro Biosystems (human, UniProt Q13308 31-704)
T2 construct: Bought protein; also called CCK4; not shown: His tag
T2 sequence: T1 sequence

B1: MYT11276 (antibody, V domains shown)
VH: EVQLVESGGGLVQPGGSLRLSCTASGIDLSRYSMGWVRQAPGKGLEWVGIISYGGSTYYASHAKGRFTISRDTSKNTVYLQMNSLRAEDTAVYFCARVGYPGYSGYGYAFDAFDPWGQGTLVTVSS
VL: EIVMTQSPSTLSASVGDRVIITCQSSKSVYNDNWLSWYQQKPGKAPKLLIYGASTLASGVPSRFSGSGSGAEFTLTISSLQPDDFATYYCAGGYSSSSDNGFGQGTKLTVL
notes: MYT9792 variant, His at VH 62 (H2 13)
B2: MYT11338 (antibody, V domains shown)
VH: B1 VH with H62W
VL: B1 VL with N100A
notes: MYT9792 variant, Ala at VL 100 (L3 10)
B3: MYT11288 (antibody, V domains shown)
VH: B1 VH with H62W, S104H
VL: B1 VL
notes: MYT9792 variant, His at VH 104 (H3 09)
B4: MYT11318 (antibody, V domains shown)
VH: B1 VH with H62W
VL: B1 VL with A53H
notes: MYT9792 variant, His at VL 53 (L2 02)
B5: MYT11298 (antibody, V domains shown)
VH: B1 VH with H62W, D114H
VL: B1 VL
B6: MYT11306 (antibody, V domains shown)
VH: B1 VH with H62W
VL: B1 VL with S26H
notes: MYT9792 variant, His at VL 26 (L1 03)
B7: MYT11323 (antibody, V domains shown)
VH: B1 VH with H62W
VL: B1 VL with S58H
notes: MYT9792 variant, His at VL 58 (L2 07)
B8: MYT11329 (antibody, V domains shown)
VH: B1 VH with H62W
VL: B1 VL with S96H
notes: MYT9792 variant, His at VL 96 (L3 06)
B9: MYT11313 (antibody, V domains shown)
VH: B1 VH with H62W
VL: B1 VL with N33H
notes: MYT9792 variant, His at VL 33 (L1 10)
B10: MYT11319 (antibody, V domains shown)
VH: B1 VH with H62W
VL: B1 VL with S54H
notes: MYT9792 variant, His at VL 54 (L2 03)
B11: MYT11314 (antibody, V domains shown)
VH: B1 VH with H62W
VL: B1 VL with W34H
notes: MYT9792 variant, His at VL 34 (L1 11)
B12: MYT11304 (antibody, V domains shown)
VH: B1 VH with H62W
VL: B1 VL with Q24H
notes: MYT9792 variant, His at VL 24 (L1 01)
B13: MYT11301 (antibody, V domains shown)
VH: B1 VH with D28A, H62W
VL: B1 VL
notes: MYT9792 variant, Ala at VH 28 (H1 03)
B14: MYT11290 (antibody, V domains shown)
VH: B1 VH with H62W, Y106H
VL: B1 VL
B15: MYT11334 (antibody, V domains shown)
VH: B1 VH with H62W
VL: B1 VL with G101H
notes: MYT9792 variant, His at VL 101 (L3 11)
B16: MYT11311 (antibody, V domains shown)
VH: B1 VH with H62W
VL: B1 VL with N31H
notes: MYT9792 variant, His at VL 31 (L1 08)
B17: MYT11286 (antibody, V domains shown)
VH: B1 VH with H62W, G102H
VL: B1 VL
notes: MYT9792 variant, His at VH 102 (H3 07)
B18: MYT11277 (antibody, V domains shown)
VH: B1 VH with H62W, A63H
VL: B1 VL
notes: MYT9792 variant, His at VH 63 (H2 14)
B19: MYT11320 (antibody, V domains shown)
VH: B1 VH with H62W
VL: B1 VL with T55H
notes: MYT9792 variant, His at VL 55 (L2 04)
B20: MYT11278 (antibody, V domains shown)
VH: B1 VH with H62W, K64H
VL: B1 VL
notes: MYT9792 variant, His at VH 64 (H2 15)
B21: MYT11300 (antibody, V domains shown)
VH: B1 VH with H62W, F94Y
VL: B1 VL
B22: MYT11299 (antibody, V domains shown)
VH: B1 VH with H62W, P115H
VL: B1 VL
B23: MYT11312 (antibody, V domains shown)
VH: B1 VH with H62W
VL: B1 VL with D32H
notes: MYT9792 variant, His at VL 32 (L1 09)
B24: MYT11308 (antibody, V domains shown)
VH: B1 VH with H62W
VL: B1 VL with S28H
notes: MYT9792 variant, His at VL 28 (L1 05)
B25: MYT11317 (antibody, V domains shown)
VH: B1 VH with H62W
VL: B1 VL with G52H
notes: MYT9792 variant, His at VL 52 (L2 01)
B26: MYT11336 (antibody, V domains shown)
VH: B1 VH with H62W
VL: B1 VL with D32A
notes: MYT9792 variant, Ala at VL 32 (L1 09)
B27: MYT11181 (antibody, V domains shown)
VH: EVQLVESGGGLVQPGGSLRLSCTASGHDLSSYVMGWVRQAPGKGLEWVGYIYGGGGTYYATWARGRFTISRDTSKNTVYLQMNSLRAEDTAVYFCARAAADFYFNLWGQGTLVTVSS
VL: EIVMTQSPSTLSASVGDRVIITCQASQSISSYLAWYQQKPGKAPKLLIYDISDLASGVPSRFSGSGSGAEFTLTISSLQPDDFATYYCQSYYWISNSGAAFGQGTKLTVL
notes: HC variant of MYT9460, sub at HCV pos 27 (H1 02)
B28: MYT11185 (antibody, V domains shown)
VH: B27 VH with H27I, S31H
VL: B27 VL
notes: HC variant of MYT9460, sub at HCV pos 31 (H1 06)
B29: MYT11186 (antibody, V domains shown)
VH: B27 VH with H27I, Y32H
VL: B27 VL
notes: HC variant of MYT9460, sub at HCV pos 32 (H1 07)
B30: MYT11188 (antibody, V domains shown)
VH: B27 VH with H27I, M34H
VL: B27 VL
notes: HC variant of MYT9460, sub at HCV pos 34 (H1 09)
B31: MYT11183 (antibody, V domains shown)
VH: B27 VH with H27I, L29H
VL: B27 VL
notes: HC variant of MYT9460, sub at HCV pos 29 (H1 04)
B32: MYT11187 (antibody, V domains shown)
VH: B27 VH with H27I, V33H
VL: B27 VL
notes: HC variant of MYT9460, sub at HCV pos 33 (H1 08)

Molecular target: T1, Human PTK7 Protein, His Tag, Acro …
Test: BLI, anti-human Fc capture, 50 nM PTK7; 2 = substantially similar binding relative to parent

binding result	Binder
binds	B1
binds	B2
binds	B3
binds	B4
binds	B5
binds	B6
binds	B7
binds	B8
binds	B9
binds	B10
binds	B11
binds	B12
binds	B13
binds	B14
binds	B15
binds	B16
binds	B17
binds	B18
binds	B19
binds	B20
binds	B21
binds	B22
binds	B23
binds	B24
binds	B25
binds	B26

Molecular target: T2, Human PTK7 Protein, His Tag, Acro …
Test: BLI (Octet), antibody on anti-human Fc sensor, 50 nM PTK7, dissociation at pH 7.4 or 5.4; 2 = substantially similar binding relative to parent

binding result	Binder
binds	B27
binds	B28
binds	B29
binds	B30
binds	B31
binds	B32
